Assay results taken from PMC11368712.

Tests used:
[1] = target: AgaBb1191 (α-galactosidase from Bifidobacterium bifidum JCM 1254, residues 23-1191, without the N-terminal T7-tag) (Bifidobacterium bifidum JCM 1254); assay: SEC
[2] = target: AgaBb1180 (Bifidobacterium bifidum JCM 1254); assay: SEC

## AgaBb1191 (α-galactosidase from Bifidobacterium bifidum JCM 1254, residues 23-1191, without the N-terminal T7-tag) (domain or fragment)
[1]
  stoichiometry N: 2

## AgaBb1180 (domain or fragment)
[2]
  stoichiometry N: 2
